Laboratory results reported in patent publication US20150080295A1 (ZEALAND PHARMA A S, published 2015).
Numbered stars: 1 amine (or outer) side, 2 acyl side, 3 side chain; on linkers, the order of the positions; unused ones are H or OH. Square brackets hold non-standard residues; d marks the D form. Side chains are listed from the residue outwards. Ends that are not written are not given here. * marks the point of attachment. γGlu = O=C(O)[C@H](CCC(=O)[*:2])N[*:1]; Palmitoyl = CCCCCCCCCCCCCCCC(=O)*; Aib = CC(C)(N)C(=O)O

Key:
[1] = target: human glucagon-like peptide 1 receptor (human, UniProt P43220 24-463); assay: cell-based or functional assay
Chain of human glucagon-like peptide 1 receptor (P43220 24-463): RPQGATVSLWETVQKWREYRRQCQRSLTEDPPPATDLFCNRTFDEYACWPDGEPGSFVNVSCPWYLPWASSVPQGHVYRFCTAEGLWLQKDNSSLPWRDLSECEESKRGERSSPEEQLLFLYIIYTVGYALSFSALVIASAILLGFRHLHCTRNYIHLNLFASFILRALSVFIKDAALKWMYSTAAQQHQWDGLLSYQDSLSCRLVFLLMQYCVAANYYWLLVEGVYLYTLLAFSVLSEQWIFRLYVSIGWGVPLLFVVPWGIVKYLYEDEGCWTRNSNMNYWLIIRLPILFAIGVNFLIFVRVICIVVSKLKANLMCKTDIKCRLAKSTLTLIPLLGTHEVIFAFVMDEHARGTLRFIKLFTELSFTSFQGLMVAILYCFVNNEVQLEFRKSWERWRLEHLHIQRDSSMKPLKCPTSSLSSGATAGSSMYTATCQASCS

[2] = target: human glucagon receptor (human, UniProt P47871 26-477); assay: cell-based or functional assay

Row | Binder | GLP-1R EC50 (nM), cAMP formation in HEK293 cells expressing human GLP-1-R [1] | GLUR EC50 (nM), cAMP formation in HEK293 cells expressing human Glucagon-R [2]
1 | H-HSQGTFTSDYSKYLDSKRAHDFVEWLLRA-NH2 [L006-0170] | 0.5 nM | 0.79 nM
2 | H-HSQGTFTSDYSKYLDSKAAHDFVQWLLRA-NH2 [L006-0172] | 0.21 nM | 0.37 nM
3 | H-HSQGTFTSDYSKYLDSKAAQDFVQWLMNT-NH2 [ZP2667] | 0.02 nM | 0.07 nM
4 | H-HSQGTFTSDYSKYLDSKAAHDFVEWLLRA-NH2 [ZP2669] | 0.05 nM | 0.05 nM
5 | H-HSQGTFTSDYSKYLDSKAAHDFVEWLLRA-OH [L006-0296] | 0.14 nM | 0.12 nM
6 | H-HSQGTFTSDYSKYLDSKAAHDFVEWLMNT-NH2 [L006-0176] | 0.44 nM | 0.57 nM
7 | H-HSQGTFTSDYSKYLDSKAARDFVRWLKLA-NH2 [ZP2668] | 0.08 nM | 0.8 nM
8 | H-HSQGTFTSDYSKYLDSKAAKDFVEWLLRA-NH2 [L006-0208] | 0.57 nM | 0.55 nM
9 | H-HSQGTFTSDYSKYLDKKAAHDFVEWLLRA-NH2 [L006-0239] | 0.98 nM | 1.05 nM
10 | HSQGTFTSDYSKYLDSK([γGlu-Palmitoyl])AAHDFVEWLLRA-NH2 [ZP2872] | 0.103 nM | 0.085 nM
11 | H-HSQGTFTSDYSKYLDSKAAHDFVKWLLRA-NH2 [L006-0212] | 0.76 nM | 1.23 nM
12 | H-HSQGTFTSDYSKYLDSKAAQDFVEWLLRA-NH2 [L006-0171] | 0.37 nM | 0.78 nM
13 | H[dS]QGTFTSDYSKYLDSKAAHDFVEWLLRA-NH2 [ZP2866] | 0.09 nM | 0.11 nM
14 | H-HSQGTFTSDYSKYLDSLAAQDFVQWLLNT-NH2 [ZP2753] | 0.04 nM | 0.08 nM
15 | H-HSQGTFTSDYSKYLDSRAAHDFVEWLLRA-NH2 [L006-0169] | 0.99 nM | 152 nM
16 | H[Aib]QGTFTSDYSKYLDSKAAHDFVEWLLRA-NH2 [ZP2867] | 0.08 nM | 0.06 nM
